# Assay results taken from article PMC9525906 (The Journal of Biological Chemistry, 2022).
# B1: Cryptococcus neoformans AICAR transformylase/IMP cyclohydrolase (ATIC) (enzyme, UniProt J9VJP1 1-605, looked up)
# chain: MSSEAPIALLSVYDKTGLLPFAKSLKELGFRLLGSGGTAKMIREAGMEIEDVSNITKAPEMLGGRVKTLHPAVHGGILSRDIPSDLADLATNKISPITLVVCNLYPFVLQTAKPDCTLAGAIEEIDIGGVTLLRAAAKNHGRVSIISSPSDYETIVAELRAKGEVSAETRRGLAIKAFEDTKSYDEAISDYFRKVYATPGVEEEMKAGAGVGYQRLGLRYGANPHQKPAQAFVEQGEMPIKVLSGSPGYINLLDALNSWALVKELAAGLDLPAAASFKHVSPAGAAVGLPLDERAAKVFGVEDLKELSPLACAYARARGADRMSSFGDFIALSHTVDTPTAKIISREVSDGVIAPGYEPEALEILSKKKGGKYCVLQMDPTYVPPEIETRQVYGISLQQKRNDCKIDESLFKNVVTANKDLPKSAVTDLVVATLALKYTQSNSVCYALNGTVIGLGAGQQSRIHCTRLAGDKADNWWLRHHPRVLELPFKKGTKRADKANAIDLFVTGQAFEAEGGERAQWESLFETVPEPLTKEEREKHMKELTGVACASDAFFPFPDNVHRAKRSGATYLAAPSGSIMDKECIKAADESNLVFCHTDLRLFHH
# Experiments:
# purified protein = substrate: NC(=O)c1ncn([C@@H]2O[C@H](COP(=O)(O)O)[C@@H](O)[C@H]2O)c1NC=O; assay: purified protein; format: biochemical, Cryptococcus neoformans; conditions: IMP cyclohydrolase activity, 100 mM Tris-Cl pH 7.5, 37 °C
# SEC-MALS = molecular target: the molecule itself; assay: SEC-MALS
protein,measurement,setting,value
B1,Km,purified protein,30 ± 1 µM
same,Vmax,purified protein,8.6 µmol/min/mg
same,kcat,purified protein,7.7 ± 0.1 s⁻¹
same,stoichiometry N,SEC-MALS,2
